Laboratory results from patent US20240287484.

How the values were obtained:
Settings in all cases: qPCR; 3 mM MgCl2, 37 C
[1] = test system: T1, MG153-26 RT (uncultivated organism (metagenomic))
T1 sequence: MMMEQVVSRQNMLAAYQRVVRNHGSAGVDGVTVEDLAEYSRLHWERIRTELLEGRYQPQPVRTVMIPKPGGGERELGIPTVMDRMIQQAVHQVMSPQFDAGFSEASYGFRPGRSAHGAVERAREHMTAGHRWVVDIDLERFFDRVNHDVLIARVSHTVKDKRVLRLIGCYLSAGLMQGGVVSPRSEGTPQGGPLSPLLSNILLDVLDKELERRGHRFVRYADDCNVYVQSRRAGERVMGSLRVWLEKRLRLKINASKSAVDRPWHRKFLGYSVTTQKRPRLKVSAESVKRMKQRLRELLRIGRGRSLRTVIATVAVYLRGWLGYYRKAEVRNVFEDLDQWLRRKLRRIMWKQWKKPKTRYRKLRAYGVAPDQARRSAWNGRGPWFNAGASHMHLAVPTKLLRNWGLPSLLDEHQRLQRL

[2] = test system: T2, MG153-47 RT (uncultivated organism (metagenomic))
T2 sequence: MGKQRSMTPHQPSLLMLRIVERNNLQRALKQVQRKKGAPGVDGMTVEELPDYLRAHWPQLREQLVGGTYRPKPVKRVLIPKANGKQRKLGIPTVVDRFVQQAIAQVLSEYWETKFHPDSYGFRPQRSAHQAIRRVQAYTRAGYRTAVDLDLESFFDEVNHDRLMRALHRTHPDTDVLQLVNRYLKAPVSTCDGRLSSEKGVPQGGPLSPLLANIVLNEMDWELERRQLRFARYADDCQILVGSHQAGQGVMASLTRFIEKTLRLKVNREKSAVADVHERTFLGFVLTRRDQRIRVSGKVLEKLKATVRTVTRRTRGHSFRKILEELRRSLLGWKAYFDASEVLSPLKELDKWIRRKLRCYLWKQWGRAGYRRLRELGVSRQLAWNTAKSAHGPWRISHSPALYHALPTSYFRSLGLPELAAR

[3] = test system: T3, MG153-50 RT (uncultivated organism (metagenomic))
T3 sequence: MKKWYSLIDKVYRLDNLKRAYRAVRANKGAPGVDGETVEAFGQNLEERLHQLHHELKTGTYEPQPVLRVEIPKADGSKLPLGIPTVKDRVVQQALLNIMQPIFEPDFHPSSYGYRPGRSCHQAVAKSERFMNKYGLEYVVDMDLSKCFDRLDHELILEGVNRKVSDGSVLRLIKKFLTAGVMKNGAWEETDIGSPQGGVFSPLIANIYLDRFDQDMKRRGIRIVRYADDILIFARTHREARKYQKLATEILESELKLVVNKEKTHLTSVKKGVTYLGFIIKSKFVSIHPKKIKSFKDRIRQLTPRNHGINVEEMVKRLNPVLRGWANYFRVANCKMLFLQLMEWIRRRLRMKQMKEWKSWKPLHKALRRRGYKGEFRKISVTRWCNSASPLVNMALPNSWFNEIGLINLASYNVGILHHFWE

[4] = test system: T4, MG153-55 RT (uncultivated organism (metagenomic))
T4 sequence: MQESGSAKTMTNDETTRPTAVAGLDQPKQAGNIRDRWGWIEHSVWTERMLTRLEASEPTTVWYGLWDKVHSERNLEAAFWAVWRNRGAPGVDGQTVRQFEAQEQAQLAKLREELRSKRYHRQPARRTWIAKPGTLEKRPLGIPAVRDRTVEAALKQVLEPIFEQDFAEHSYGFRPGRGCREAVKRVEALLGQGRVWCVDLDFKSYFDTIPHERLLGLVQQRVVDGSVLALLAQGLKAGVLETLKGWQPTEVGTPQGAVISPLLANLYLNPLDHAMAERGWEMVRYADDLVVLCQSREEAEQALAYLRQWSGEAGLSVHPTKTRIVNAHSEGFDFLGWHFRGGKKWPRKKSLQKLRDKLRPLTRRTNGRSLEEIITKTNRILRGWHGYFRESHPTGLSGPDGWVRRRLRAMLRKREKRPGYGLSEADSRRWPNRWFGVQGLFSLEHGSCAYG

[5] = test system: T5, MG153-56 RT (uncultivated organism (metagenomic))
T5 sequence: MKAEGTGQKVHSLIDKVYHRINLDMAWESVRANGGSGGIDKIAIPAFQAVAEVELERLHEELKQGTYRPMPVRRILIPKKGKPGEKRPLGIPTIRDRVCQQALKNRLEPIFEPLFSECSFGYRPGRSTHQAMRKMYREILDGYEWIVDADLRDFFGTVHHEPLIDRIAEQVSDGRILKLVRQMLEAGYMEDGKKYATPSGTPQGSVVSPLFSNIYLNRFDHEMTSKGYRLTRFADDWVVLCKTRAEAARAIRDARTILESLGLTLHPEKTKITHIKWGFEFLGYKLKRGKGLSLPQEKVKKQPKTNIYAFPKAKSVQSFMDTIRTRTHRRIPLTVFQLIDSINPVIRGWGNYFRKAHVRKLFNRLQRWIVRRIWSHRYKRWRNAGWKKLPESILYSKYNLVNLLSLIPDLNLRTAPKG

[6] = test system: T6, MG153-7 RT (uncultivated organism (metagenomic))
T6 sequence: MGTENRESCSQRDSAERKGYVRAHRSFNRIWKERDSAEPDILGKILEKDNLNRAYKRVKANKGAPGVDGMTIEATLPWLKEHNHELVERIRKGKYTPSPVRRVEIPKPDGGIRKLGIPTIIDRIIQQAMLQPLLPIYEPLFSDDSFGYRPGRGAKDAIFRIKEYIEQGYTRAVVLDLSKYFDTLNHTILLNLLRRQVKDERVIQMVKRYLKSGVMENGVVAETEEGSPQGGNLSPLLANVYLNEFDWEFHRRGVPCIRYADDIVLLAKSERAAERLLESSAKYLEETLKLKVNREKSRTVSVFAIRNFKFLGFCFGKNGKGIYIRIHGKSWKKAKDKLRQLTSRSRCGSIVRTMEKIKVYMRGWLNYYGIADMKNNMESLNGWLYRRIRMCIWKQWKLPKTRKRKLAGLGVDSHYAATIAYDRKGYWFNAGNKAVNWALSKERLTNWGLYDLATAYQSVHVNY

Measured: activity (fold over background)

200 nt RNA template annealed to DNA primer
> 10: [1] | [2] | [3] | [4] | [5] | [6]
